These results are taken from patent US20080076731A1 (UNIVERSITY OF SOUTH FLORIDA, published 2008).

The target in the test is T1, SH2-containing inositol-5-phosphatase (SHIP), mouse, endogenous protein in NK cell lysates (mouse, UniProt Q9ES52 1-1191, limits assumed).
T1 construct: Endogenous protein co-immunoprecipitated from NK-enriched C57BL6/J splenocyte lysates (modified RIPA buffer) and detected by Western blot with anti-SHIP P2C6; also called SH2-containing Inositol Polyphosphatase; 135/145 kD SHIP isoforms
T1 sequence (looked up): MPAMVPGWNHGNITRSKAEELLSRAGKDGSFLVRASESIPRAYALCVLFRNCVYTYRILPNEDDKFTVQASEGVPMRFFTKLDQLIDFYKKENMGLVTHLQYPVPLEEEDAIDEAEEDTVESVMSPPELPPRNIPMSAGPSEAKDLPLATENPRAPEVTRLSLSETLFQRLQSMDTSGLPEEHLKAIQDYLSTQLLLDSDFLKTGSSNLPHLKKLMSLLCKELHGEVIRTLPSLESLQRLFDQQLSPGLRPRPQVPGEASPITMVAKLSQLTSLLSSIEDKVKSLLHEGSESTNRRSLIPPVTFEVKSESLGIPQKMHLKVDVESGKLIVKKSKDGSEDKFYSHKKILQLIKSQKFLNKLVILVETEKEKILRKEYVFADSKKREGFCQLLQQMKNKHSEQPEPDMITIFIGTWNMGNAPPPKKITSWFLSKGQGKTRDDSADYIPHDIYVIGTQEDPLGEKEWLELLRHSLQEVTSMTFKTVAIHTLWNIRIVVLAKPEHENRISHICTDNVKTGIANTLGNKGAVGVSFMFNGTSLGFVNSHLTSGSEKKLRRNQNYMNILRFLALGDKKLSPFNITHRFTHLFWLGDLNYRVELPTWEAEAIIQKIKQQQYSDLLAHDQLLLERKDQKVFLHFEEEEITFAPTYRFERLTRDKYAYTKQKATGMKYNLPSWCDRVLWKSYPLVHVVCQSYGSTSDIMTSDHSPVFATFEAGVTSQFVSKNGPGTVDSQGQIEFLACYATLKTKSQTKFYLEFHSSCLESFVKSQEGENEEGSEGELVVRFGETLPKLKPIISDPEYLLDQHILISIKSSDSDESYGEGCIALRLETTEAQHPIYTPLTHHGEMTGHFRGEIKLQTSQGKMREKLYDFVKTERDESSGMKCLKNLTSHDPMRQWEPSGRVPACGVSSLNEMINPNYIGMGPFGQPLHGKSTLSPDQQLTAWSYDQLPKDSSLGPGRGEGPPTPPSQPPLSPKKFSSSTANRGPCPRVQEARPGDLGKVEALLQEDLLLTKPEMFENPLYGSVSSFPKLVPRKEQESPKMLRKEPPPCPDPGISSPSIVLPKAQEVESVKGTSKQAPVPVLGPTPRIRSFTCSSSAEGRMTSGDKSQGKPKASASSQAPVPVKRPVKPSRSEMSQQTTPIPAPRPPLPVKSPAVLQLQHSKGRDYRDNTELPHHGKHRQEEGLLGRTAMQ
Briefly: co-immunoprecipitation from NK-enriched splenocyte lysates, Western blot with anti-SHIP P2C6. From the text:
Equal quantities of protein from cells lysates prepared from SHIP^{+/+} and SHIP^{-/-} NK cells are resolved on a 4-12% Tris-Bis polyacrylamide gel (Invitrogen), transferred to a nitrocellulose membrane (Amersham) and the filters probed with an anti-Akt-P(Threo) antibody (Cell Signaling) at a 1:1000 dilution. […] The blot is then stripped and reprobed in a similar manner using an anti-β-actin antibody (Cell Signaling) as an internal control for protein loading.
Thus, in FIG. 5, SHIP is shown to be recruited to NK inhibitory receptors and to oppose Akt activation in vivo. […] A mock immunoprecipitation of the NK lysates with an IgG2a antibody is analyzed in parallel as a negative control. The results of these immunoprecipitations are representative of two independent analyses of NK-enriched splenocytes. […] Immunoprecipitation of SHIP from NK cell lysates serves as positive control in both (A) and (B). In (A) a one-tenth exposure of the SHIP lane enables the 135/145 kD SHIP isoforms to be distinguished clearly. […] To control for the amount of cell lysate loaded in each sample, the Akt-P blot is stripped and re-probed with an antibody specific for β-actin, GAPDH, and cc tubulin. […] Immunoprecipitation with a murine IgG2a antibody (IgG2a) is analyzed as a negative control and SHIP is immunoprecipitated as a positive control. […]

B1: Ly49G2, mouse NK inhibitory receptor (receptor, UniProt Q60654-2 1-267, looked up)
chain: MSEQEVTYSTVRFHESSRLQKLVRTEEPQRPREACYREYSVPWKLIVIACGILCFLLLVTVALLAITIFQHSQQKHELQETLNCHDNCSPTQSDVNLKDELLRNKSIECRPGNDLLESLSRDQNRWYSETKTFSDSSQHTGRGFEKYWFCYGIKCYYFNMDRKTWSGCKQTCQISSLSLLKIDNEDELKFLQNLAPSDISWIGLSYDNKKKDWVWIDNGPSKLALNTTKYNIRDGLCMSLSKTRLDNGDCDKSYICICGKRLDKFPH
notes: Immunoprecipitated with anti-Ly49G2 (4D11)
With B1, the binding result is listed as “no binding”.
